In patent US20110165161A1, “ANTI-EPCAM ANTIBODIES THAT INDUCE APOPTOSIS OF CANCER CELLS AND METHODS USING SAME” (priority 2009, published 2011):
Marks after values point to notes of the source that are not given here.

Columns and labels:
CHO parental cells = experiment: FACS binding of anti-EpCAM antibodies to CHO parental cells; parameters: species or system Chinese hamster; settings: antibody 0.1 μg/ml; HPS at 300x dilution
Procedure: 1×10^5 CHO/EpCAM or CHO parental cells were seeded in each well of a v-bottomed 96-well plate and incubated with purified anti-EpCAM antibodies or mouse IgG control antibody 9E10 at concentration of 0.1 μg/ml. A 300× dilution of human cell hyper-immune serum (HPS 300×) was used as binding positive control for both cell lines here. After 1 hr incubation at 4° C., cells were washed twice with 200 μl FACS buffer (1×PBS containing 1% FBS), stained with 100 μl of 1 μg/ml goat-anti-mouse IgG-PE (Southern Biotech, Cat. No. 1032-09) in FACS buffer and then incubated at 4° C. for 30 min. Cells were washed thrice with FACS buffer and analyzed by flow cytometry (BD LSR, BD Life Sciences).

[1] = tested on: Breast cancer T-47D cells; experiment: Antibody cytotoxicity assay (Annexin V + PI), T-47D; format: cell-based; settings: 1, 3 and 10 μg/ml, overnight
Procedure: (§1) After a 17-20 hr incubation at 37° C., cells were stained with 0.3 μl of FITC-conjugated Annexin V (Strong Biotech Corp. Cat. No. AVK250) in 50 μl Annexin V binding buffer (Strong Biotech Corp. Cat. No. AVK250) at RT for 20 min. After wash, the cells were then stained with 0.3 μl of propidium iodide in 200 μl Annexin V binding buffer. Annexin V and Propidium Iodide were used as a joint indicator for cell death. The data were acquired with BD FACSCalibur based on an acquisition of 3,000-5,000 cells and analyzed with the Cell Quest software. The combined percentages of the Annexin V+/PI+, Annexin V+/PI− and Annexin V−/PI+populations were considered as dead cells.

[2] = tested on: Colorectal cancer DLD-1 cells; experiment: Antibody cytotoxicity assay (Annexin V + PI), DLD-1; format: cell-based; settings: 1, 3 and 10 μg/ml, overnight
Procedure: as §1

[3] = tested on: Gastric cancer NCI-N87 cells; experiment: Antibody cytotoxicity assay (Annexin V + PI), NCI-N87; format: cell-based; settings: 1, 3 and 10 μg/ml, overnight
Procedure: as §1

[4] = tested on: Lung cancer NCI-H520 cells; experiment: Antibody cytotoxicity assay (Annexin V + PI), NCI-H520; format: cell-based; settings: 1, 3 and 10 μg/ml, overnight
Procedure: as §1

[5] = tested on: Prostate cancer LNCaP cells; experiment: Antibody cytotoxicity assay (Annexin V + PI), LNCaP; format: cell-based; settings: 1, 3 and 10 μg/ml, overnight
Procedure: as §1

[6] = tested on: Pharynx cancer FaDu cells; experiment: Antibody cytotoxicity assay (Annexin V + PI), FaDu; format: cell-based; settings: 1, 3 and 10 μg/ml, overnight
Procedure: as §1

[7] = tested on: Ovarian cancer NIH:OVCAR-3 cells; experiment: Antibody cytotoxicity assay (Annexin V + PI), NIH:OVCAR-3; format: cell-based; settings: 1, 3 and 10 μg/ml, overnight
Procedure: as §1

[8] = tested on: NCI-H358 lung cancer cells; experiment: Cell death in NCI-H358 lung cancer cells (Annexin V + PI); format: cell-based, human; settings: mean of 5 experiments; mAb 10 μg/ml; 17 hr
Procedure: (§2) 5×10^4 NCI-H358 cells were seeded to each well of a 96-well plate, and then 10 μg/ml of anti-EpCAM or control (9E10) mAbs diluted in the medium was added into the cells. After a 17-hr incubation at 37° C., the cells were stained with 0.3 μl of FITC-conjugated Annexin V (Strong Biotech Corp. Cat. No. AVK250) in 50 μl Annexin V binding buffer (Strong Biotech Corp. Cat. No. AVK250) at RT for 20 min. After wash, the cells were then stained with 0.3 μl of propidium iodide in 200 μl Annexin V binding buffer. Annexin V and Propidium Iodide were used as a joint indicator for measuring cell death. The data were acquired with BD FACSCalibur based on an acquisition of 3,000-5,000 cells and analyzed with the Cell Quest software. The combined percentages of the Annexin V+/PI+, Annexin V+/PI− and Annexin V−/PI+populations were considered as dead cells.

[9] = tested on: COLO 205 colon cancer cells; experiment: Cytotoxicity of anti-EpCAM antibodies in combination with oxaliplatin in COLO 205; format: cell-based, human; settings: 24 hr
Procedure: as §2, with “Oxaliplatin, combined with infusional administration of 2 other chemotherapy drugs, 5-fluorouracil/leucovorin (5-FU/LV), is now considered as one of the as first-line treatments for people with advanced carcinoma of the colon or rectum (André et al. (2004) N Engl J Med 350(23):2343-2351). To test the cytotoxicity of anti-EpCAM antibodies in the presence of oxaliplatin, 1×10^5 COLO 205 cells” for “5×10^4 NCI-H358 cells”, “then 0.03, 0.3 and 3” for “then 10”, “mAbs in combination with oxaliplatin at concentration of 0, 0.01, 0.1, and 1 μg/ml” for “mAbs”, “medium were” for “medium was”, “a 24-hr” for “a 17-hr”

DLD-1 xenograft = experiment: Colorectal cancer DLD-1 xenograft in SCID mice; format: in vivo; settings: for tumor volume Mean ± SD: 12.5 mg/kg i.p.
Procedure: (§3) Whether the in vitro apoptosis-inducing activity of anti-EpCAM antibodies has any in vivo biological relevance was studied in the xenograft model. […] 5×10^6 DLD-1 or 3×10^6 NCI-H358 cells were implanted subcutaneously into the hind flank region of SCID mice (6-7 weeks) on day 0. Treatment by intraperitoneal injection with antibodies at 12.5 mg/kg for DLD-1 or 30 mg/kg for NCI-H358 in 0.1 ml PBS started on day 1 after tumor-cell inoculation and was repeated at days 4, 8, 11, 15, 18, 22 and 25. As control, 9E10 (an mouse anti-myc antibody) at the same dose were used. Five or six mice were used in each group of the experiment. Tumor growth was assessed based on twice-weekly measurement of tumor volume (mm^3) by calipers and the tumor size was calculated using the formula: π/6×larger diameter×(smaller diameter)^2 (Kievit E, Cancer Research, 60:6649-55). Statistical analysis of tumor growth was performed using the Student's t-test.

NCI-H358 xenograft = experiment: Lung cancer NCI-H358 xenograft in SCID mice; format: in vivo; settings: for tumor volume Mean ± SD: 30 mg/kg i.p.
Procedure: as §3

B1: 12H8: murine anti-human EpCAM monoclonal antibody (IgG2a, K), hybridoma m342-12H8.3; VH SEQ ID NO:3, VL SEQ ID NO:5 (antibody, listed as Mus musculus, V domains shown)
VH: QIQLVQSGPELKKPGETVKISCKTSGYTFTDYSMHWVNQAPGKGLKWMGWINTETGEPTYTDDFKGRFAFSLETSASTAYLQINNLKNEDTATYFCARTAVYWGQGTTLTVSS
VL: DIQMTQSPSSLSASLGERVSLTCRASQEISGSLSWLQQKPDGTIKRLIYAASTLNSGVPKRFSGRRSGSDYSLTISSLESEDFVDYYCLQYSSYPWSFGGGTKLEIKR
B1 was tested, and the “Binding (FACS, Mean fluorescence intensity (MFI)) CHO” value (CHO parental cells) was 5, the “Induction of cell death (in words)” value [1] was “substantial cell death” and the “Induction of cell death (in words)” value [2] was “substantial cell death”. The “Induction of cell death (in words)” value [3] was “substantial cell death”, the “Induction of cell death (in words)” value [4] was “substantial cell death” and the “Induction of cell death (in words)” value [5] was “substantial cell death”. For the same molecule, the “Induction of cell death (in words)” value [6] was “substantial cell death”, the “Induction of cell death (in words)” value [7] was “substantial cell death” and the “% of Annexin V + PI staining (untreated background subtracted), Mean ± SEM” value [8] was 33.6 ± 2.1%. The “% of Annexin V + PI staining (untreated background subtracted)” value ([9]; mAb 0.03 μg/ml + oxaliplatin 0.01 μg/ml) was 10%, the “% of Annexin V + PI staining (untreated background subtracted)” value ([9]; mAb 0.03 μg/ml + oxaliplatin 0.1 μg/ml) was 9% and the “% of Annexin V + PI staining (untreated background subtracted)” value ([9]; mAb 0.03 μg/ml + oxaliplatin 1 μg/ml) was 14%. The “% of Annexin V + PI staining (untreated background subtracted)” value ([9]; mAb 0.03 μg/ml, oxaliplatin 0 μg/ml) was 9%, the “% of Annexin V + PI staining (untreated background subtracted)” value ([9]; mAb 0.3 μg/ml + oxaliplatin 1 μg/ml) was 35% and the “% of Annexin V + PI staining (untreated background subtracted)” value ([9]; mAb 0.3 μg/ml, oxaliplatin 0 μg/ml) was 20%. For the same molecule, the “% of Annexin V + PI staining (untreated background subtracted)” value ([9]; mAb 3 μg/ml + oxaliplatin 0.01 μg/ml) was 22%, the “% of Annexin V + PI staining (untreated background subtracted)” value ([9]; mAb 3 μg/ml + oxaliplatin 0.1 μg/ml) was 26% and the “% of Annexin V + PI staining (untreated background subtracted)” value ([9]; mAb 3 μg/ml + oxaliplatin 1 μg/ml) was 38%. For the same molecule, the “% of Annexin V + PI staining (untreated background subtracted)” value ([9]; mAb 3 μg/ml, oxaliplatin 0 μg/ml) was 17%, the “Inhibition of tumor growth (in words)” value (DLD-1 xenograft; colorectal (DLD-1) xenograft) was “efficiently inhibited” and the “tumor volume Mean ± SD” value (DLD-1 xenograft; d29) was 296 ± 154* mm^3. The “tumor volume Mean ± SD” value (DLD-1 xenograft; d32) was 396 ± 156* mm^3, the “tumor volume Mean ± SD” value (DLD-1 xenograft; d36) was 521 ± 189* mm^3 and the “tumor volume Mean ± SD” value (DLD-1 xenograft; d39) was 619 ± 232* mm^3. The “tumor volume Mean ± SD” value (DLD-1 xenograft; d43) was 727 ± 270* mm^3, the “tumor volume Mean ± SD” value (DLD-1 xenograft; d46) was 839 ± 292* mm^3 and the “tumor volume Mean ± SD” value (DLD-1 xenograft; d49) was 898 ± 207* mm^3. For the same molecule, the “tumor volume Mean ± SD” value (NCI-H358 xenograft; d46) was 325 ± 132* mm^3, the “tumor volume Mean ± SD” value (NCI-H358 xenograft; d50) was 475 ± 224* mm^3 and the “tumor volume Mean ± SD” value (NCI-H358 xenograft; d53) was 597 ± 304* mm^3. For the same molecule, the “tumor volume Mean ± SD” value (NCI-H358 xenograft; d57) was 656 ± 274* mm^3, the “tumor volume Mean ± SD” value (NCI-H358 xenograft; d60) was 680 ± 279* mm^3 and the “tumor volume Mean ± SD” value (NCI-H358 xenograft; d64) was 859 ± 326* mm^3. The “tumor volume Mean ± SD” value (NCI-H358 xenograft; d67) was 1076 ± 464* mm^3 and the “Inhibition of tumor growth (in words)” value (NCI-H358 xenograft; lung (NCI-H358) xenograft) was “efficiently inhibited”.
